Assay results reported in a protein production outcome set (Wang et al. 2014).

Assay: label from the status in PepcDB records
With “SDMVAQALELSRKPHVVIATPGRLADHLRSSNTFSIKKIRFLVMDEADRLLEQGCTDFTVDLEAILAAVPARRQTLLFSATLTDTLRELQGLATNQPFFWEAQAPVSTVEQLDQRYLLVPEKVKDAYLVHLIQRFQDEHEDWSIIIFTNTCKTCQILCMMLRKFSFPTVALHSMMKQKERFAALAKFKSSIYRILIATDVASRGADQPPLPPGAWTSLRYRWSSTTTPPGSPRSTSTESAGRPVQGGRVRPSRW” the protein production was “not failed”. In the case of “SDPDADRVGIACKNDKGEWVLINGNQTCLMYLYYIITQYNKLGKMTGNEFCVKTIVTTELIKKIADKNHIEMLDCYTGFKWIAREIRLREGKKKYIGGGEESYGFLAEDFVRDKDAVSACCLIAEVAAWAKDNGKTLYQLLMDIYVEYGFSKE”, the protein production was “failed”. With “SDSPEQESADDALKRIVDGFQHFRREVFPEQQALFKKLANSQRPRAMFITCADSRIVPELITQSSPGDLFVTRNVGNVVPPYGQMNGGVSTAIEYAVLALGVHHIIVCGHSDCGAMRAVLDPQTLERMPTVKAWLRHAEVARTVVADNCDCGASHDTLGVLTEENVVAQLDHLRTHPSVASRLASGQLFIHGWVYDIESAQIRAYDAKQGRFLPLDGEHPVPMATPAPRYLSS” the protein production was “failed”. For “SEITVSEFLLDFLNKYSENISLATYNNYVSICKNYINPSIGKYKIQDLHPVHIQNYIDKLSYKLNPQSIKIHINILKLAIKRAYRLKLIKENVMDSIKAP”, the protein production was “failed”. In the case of “SEKLAASTEPQGPRPVLGRESVQVPDDQDFRSFRSECEAEVGWNLTYSRAGVSVWVQAVEMDRTLHKIKCRMECCDVPAETLYDVLHDIEYRKKWDSNVIETFDIARLTVNADVGYYSWRCPKPLKNRDVITLRSWLPMGADYIIMNYSVKHPKYPPRKDLVRAVSIQTGYLIQSTGPKSCVITYLAQVDPKGSLPKWVVNKSSQFLAPKAMKKMYKACLKYPEWKQKHLPHFKPWLHPEQSPLPSLALSELSVQHADSLENIDESAVAESREERMGGAGGEGSDDDTSLT”, the protein production was “not failed”. In the case of “SELKPTAPPIFTGRPFVVAWDVPTQDCGPRLKVPLDLNAFDVQASPNEGFVNQNITIFYRDRLGLYPRFDSAGRSVHGGVPQNVSLWAHRKMLQKRVEHYIRTQESAGLAVIDWEDWRPVWVRNWQDKDVYRRLSRQLVASRHPDWPPDRIVKQAQYEFEFAAQQFMLETLRYVKAVRPRHLWGFYLFPDCYNHDYVQNWESYTGRCPDVEVARNDQLAWLWAESTALFPSVYLDETLASSRHGRNFVSFRVQEALRVARTHHANHALPVYVFTRPTYSRRLTGLSEMDLISTIGESAALGAAGVILWGDAGYTTSTETCQYLKDYLTRLLVPYVVNVSWATQYCSRAQCHGHGRCVRRNPSASTFLHLSTNSFRLVPGHAPGEPQLRPVGELSWADIDHLQTHFRCQCYLGWSGEQCQWDHRQAAGGASEAWAGSHLTSLLALAALAFTWTL”, the protein production was “failed”. In the case of “SERYAAALEEVADGARQQERHYQLLSALQSLVKELPSSFQQRLSYTTLSDLALALLDGTVFEIVQGLLEIQHLTEKSLYNQRLRLQNEHRVLRQALRQKHQEAQQACRPHNLPVVQAAQQRELEAVEHRIREEQRAMDQKIILELDRKVADQQSTLEKAGVAGFYVTTNPQELMLQMNLLELIRKLQQRGCRAGNAALGLGGPWQSPAAQCDQKGSPVPP”, the protein production was “not failed”. With “SEYKFAKFAATYFQGTTTHSYTRRPLKQPLLYHDDEGDQLAALAVWITILRFMGDLPEPKYHTAMSDGSEKIPVMTKIYETLGKKTYKRELQALQGEGEAQLPEGQKKSSVR” the protein production was “failed”. For “SFRVVLDPGHGGIDGGARGVTGILEKDVTLAFARALRDELQKGSHTIVALTRDSDIFLRLSERVKKAQEFDADLFISIHADTIDVHSLRGATVYTISDEASDAIAKSLAESENKVDLLDGLPKEESLELTDILLDLTRRETHAFSINFANNVVSNLSKSHINLINNPHRYADFQVLKAPDVPSVLIEIGYLSNKEDEKLLNNPQWRKQMAASIAYSIRQFAEYRQKIMQPL”, the protein production was “not failed”. With “SGLAQPQIAAVVAAPKKPEPAKAPKAPKSKSEKENKPVVAARKANAPVAKNASPVKGGKGPAGGDVGRPKNPTANGANNQGRFNNNQRYGNKESNGEFGNELPQRQFNNRDNRGPPRVRTGEKFG” the protein production was “failed”. In the case of “SIAILVIMHGESTASSMVNVANTLLDCNHAVAINMGLEDRVQDILVQAVEIANKIDKGKGILILTDMGSILTFAKVIRDATGKEVKAIDMVSTPIVIEATRKALTPEMTLEKLYFNIIESIKKHYGDMEVTYAEK”, the protein production was “failed”. With “SIAILVIMHGESTASSMVNVANTLLDCNHAVAINMGLEDRVQDILVQAVEIANKIDKGKGILILTDMGSILTFAKVIRDATGKEVKAIDMVSTPIVIEATRKALTPEMTLEKLYFNIIESIKKHYGDMEVTYAEKDNGGRY” the protein production was “not failed”. For “SIDSKLQTLGEQLMQGKRGAIVMIEPETGEVLCLVSSPSYDPSLLAGKDRGKNHLEMEHDRNKPLYARAIQATYPPGSTFKPAQGAIFLQEGVIRPTDAFSCYHGFPPLNNRPACHSHGSPLSLVPALATSCNAFFCWGLRAMLDNRRFYPSVQEAFEHWKNRIVGLGFGYRLGLDLPGERRGYIPNSKVYDKAYKGRWNSSTIISISIGQGEILATPLQIANLGVIIANRGRYRRPHVVKAIQGIPLDTAYTNWQNSGISPANMEYIVEGMARAVTGGTCHAANFAPGEIEVCGKTGTAENPHGKDHSAFLGFAPRNNPKVVVSVYVENGGFGAVYGVPIGRVMMEYYLREGKLSPEGEAVATKMSNTAIHYSNVF”, the protein production was “failed”. For “SISTHESQKLREYYRLLNLDEGCSVDDVRESFHKLARQYHPDSGSSDADSATFIKIEEAYRNVLSHAIKRMHAGQDKAEDAAEDEEEGKFKYNTPQHRHYLSFEGVGFGTPSQREKQYRQFRADRATEQVMEYQRQKLQREFFANSITVKDVRQSKQQKITQAIERLVEDLIQESMAKGDFDNLSGKGKPLKKFSGCSYIDPMTHNLNRILIDNGYQPEWILMQKEIKDTIEQLREALLMSRKKLGNPLSPTEQKQWAQVCEQFQEKIRKLNKRINDFNLIVPILTRQKVHFDAQKEIIRVQEMYGAFVEANEVTEENQTDVSQGEESKTPRVKAGFLNWLNLWKSIKI”, the protein production was “failed”. For “SKIYDNKNQLIADLGSERRVNAQANDIPTDLVKAIVSIEDHRFFDHRGIDTIRILGAFLRNLQSNSLQGGSTLTQQLIKLTYFSTSTSDQTISRKAQEAWLAIQLEQKATKQEILTYYINKVYMSNGNYGMQTAAQNYYGKDLNNLSLPQLALLAGMPQAPNQYDPYSHP”, the protein production was “failed”. In the case of “SKKPYIVTIACTKGGSAKSTNAANIGAFCADHGLRTLLIDTDTQPTLSSYYSLAKTAPGGIYEFLLQRDVEPSHIVSQTSIKNLDLIQSNDPSNNVSHMLRNAPDGSIRFSHLIKSINNYDVIVIDTRGTRDITVDMSVLAADILFCPILPQILSAKEFIRGTIGMYQDLQTFESFGFKLPPLKAIANGVDNTNDVKFVMQKLHTLFANTFDES”, the protein production was “failed”. For “SKLNERSVAHYALSDSPADHMGFLRTWGGPGTPPTPSGTGRRCWFVLKGNLLFSFESREGRAPLSLVVLEGCTVELAEAPVPEEFAFAICFDAPGVRPHLLAAEGPAAQEAWVKVLSRASFGYMRLVVRELESQLQDARQSLALQRRSSWKSVASRCKPQAPNHRAAGLENGHCLSKDSSPVGLVEEAGSRSAGWGLAEWELQGPASLLLGKGQSPVSPETSCFSTLHDWYGQEIVELRQCWQKRAQGSHSKCEEQDRP”, the protein production was “not failed”. With “SKYQLGMLHFSTQYDLLHNHLTVRVIEARDLPPPISHDGSRQDMAHSNPYVKICLLPDQKNSKQTGVKRKTQKPVFEERYTFEIPFLEAQRRTLLLTVVDFDKFSRHCVIGKVSVPLCEVDLVKGGHWWKALIP” the protein production was “not failed”. For “SLANIREIAKRAGISIATVSRHLNNTGYVSEDAREKIQKVVDELNYTPNALARAMFTKNSKTIGLMVPNISNPFFNQMASVIEEYAKNKGYTLFLCNTDDDKEKEKTYLEVLQSHRVAGIIASRSQCEDEYANIDIPVVAFENHILDNIITISSDNYNGGRMAFDHLYEKGCRKILHIKGPEVFEATELRYKGFLDGARAKDLEIDFIEFQHDFQVKMLEEDINSMKDIVNYDGIFVFNDIAAATVMRALKKRGVSIPQEVQIIGFDNSFIGELLYPSLTTINQPIEALAYTIIELLIKIINGEGVLIEDYIMEVKLIERETTISLKDEG”, the protein production was “not failed”. With “SLDTEKDCIKAVAAKDGITVIKVKSSNKLLSWHFMRKLFEIFEFYQEPVDMVATSEVGVSLTIDNDKNLPDIVRALSDIGDVTVDKDMVIICIVGDMEWDNVGFEARIINALKGVPVRMISYGGSNYNVSVLVKAEDKKKALIALSNKLFNSRATKA” the protein production was “not failed”.
